Reference: US20190284293A1 (Bristol-Myers Squibb, published 2019)
Several values for one entry are separate records, joined by “and”; a condition that tells them apart may be missing. Equal entries are not always repeated.

T1: human CD73 on cells (human, UniProt P21589 27-549)
T1 sequence: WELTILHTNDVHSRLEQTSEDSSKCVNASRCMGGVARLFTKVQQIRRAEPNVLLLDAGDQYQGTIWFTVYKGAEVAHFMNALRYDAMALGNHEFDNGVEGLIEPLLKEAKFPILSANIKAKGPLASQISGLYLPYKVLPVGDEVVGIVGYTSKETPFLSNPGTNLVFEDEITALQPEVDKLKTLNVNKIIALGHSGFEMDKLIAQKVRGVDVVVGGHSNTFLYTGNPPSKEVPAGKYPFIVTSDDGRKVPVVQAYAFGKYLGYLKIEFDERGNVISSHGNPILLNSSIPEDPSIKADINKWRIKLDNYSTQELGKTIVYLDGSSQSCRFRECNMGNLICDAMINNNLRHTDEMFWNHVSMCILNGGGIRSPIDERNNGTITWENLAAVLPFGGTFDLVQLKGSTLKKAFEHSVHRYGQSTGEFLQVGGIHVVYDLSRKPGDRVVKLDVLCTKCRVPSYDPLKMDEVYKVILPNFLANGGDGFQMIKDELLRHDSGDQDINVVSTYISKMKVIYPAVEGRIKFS

T2: N-hCD73-his (N-terminal domain of human CD73, residues 26-336, His tag) (human, UniProt P21589 26-336)
T2 sequence: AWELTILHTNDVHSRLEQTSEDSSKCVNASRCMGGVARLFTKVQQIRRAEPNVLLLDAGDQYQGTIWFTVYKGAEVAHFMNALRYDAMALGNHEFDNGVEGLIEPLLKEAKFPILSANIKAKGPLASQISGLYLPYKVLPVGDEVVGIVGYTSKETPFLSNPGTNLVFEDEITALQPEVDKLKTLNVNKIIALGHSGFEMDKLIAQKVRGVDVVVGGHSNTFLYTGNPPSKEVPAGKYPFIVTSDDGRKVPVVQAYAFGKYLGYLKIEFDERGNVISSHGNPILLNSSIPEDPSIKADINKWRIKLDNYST

B1: CD73.10-IgG2-C219S-IgG1.1f (antibody)
heavy: QVQLVESGGGVVQPGRSLRLSCAASGFTFSNYGMHWVRQAPGKGLEWVAVIWYDESNKYYPDSVKGRFTISRDNSKNTLYLQMNSLRAEDTAVYYCARGGSSWYPDSFDIWGQGTMVTVSSASTKGPSVFPLAPCSRSTSESTAALGCLVKDYFPEPVTVSWNSGALTSGVHTFPAVLQSSGLYSLSSVVTVPSSNFGTQTYTCNVDHKPSNTKVDKTVERKSCVECPPCPAPPVAGPSVFLFPPKPKDTLMISRTPEVTCVVVDVSHEDPEVKFNWYVDGVEVHNAKTKPREEQYNSTYRVVSVLTVLHQDWLNGKEYKCKVSNKALPSSIEKTISKAKGQPREPQVYTLPPSREEMTKNQVSLTCLVKGFYPSDIAVEWESNGQPENNYKTTPPVLDSDGSFFLYSKLTVDKSRWQQGNVFSCSVMHEALHNHYTQKSLSLSPG
light: not shown
notes: also called CD73.10-IgG2CS-IgG1.1f; CD73.10-IgG2S-IgG1.1f
B2: CD73.10-IgG2-C219S (antibody)
heavy: QVQLVESGGGVVQPGRSLRLSCAASGFTFSNYGMHWVRQAPGKGLEWVAVIWYDESNKYYPDSVKGRFTISRDNSKNTLYLQMNSLRAEDTAVYYCARGGSSWYPDSFDIWGQGTMVTVSSASTKGPSVFPLAPCSRSTSESTAALGCLVKDYFPEPVTVSWNSGALTSGVHTFPAVLQSSGLYSLSSVVTVPSSNFGTQTYTCNVDHKPSNTKVDKTVERKSCVECPPCPAPPVAGPSVFLFPPKPKDTLMISRTPEVTCVVVDVSHEDPEVQFNWYVDGVEVHNAKTKPREEQFNSTFRVVSVLTVVHQDWLNGKEYKCKVSNKGLPAPIEKTISKTKGQPREPQVYTLPPSREEMTKNQVSLTCLVKGFYPSDIAVEWESNGQPENNYKTTPPMLDSDGSFFLYSKLTVDKSRWQQGNVFSCSVMHEALHNHYTQKSLSLSPG
light: not shown
notes: also called CD73.10-IgG2CS; CD73.10-IgG2S

What was measured:
human CD73 on cells [1] = molecular target: T1, human CD73 on cells; assay: cell-based or functional assay
[2] = molecular target: T2, N-hCD73-his (N-terminal domain of human …); assay: SPR, mAb captured on protein A
human CD73 on cells [3] = molecular target: T1, human CD73 on cells; assay: binding titration on Calu6 cells, average of 2-6 experiments
[4] = molecular target: T2, N-hCD73-his (N-terminal domain of human …); assay: SPR
[5] = molecular target: T2, N-hCD73-his (N-terminal domain of human …); assay: SPR, comparison of all IgG2 molecules
Description: For these experiments, protein A (Pierce) was immobilized to a density of 3000-4000 RU on flow cells 1-4 of a CM5 sensor chip (GE Healthcare) using standard ethyl(dimethylaminopropyl) carbodiimide (EDC)/N-hydroxysuccinimide […] chemistry, with ethanolamine blocking, in a running buffer of 0.01 M HEPES pH 7.4, 0.15 M NaCl, 3 mM EDTA, 0.005% v/v tween 20. […] The running buffer for the kinetic experiments was 10 mM sodium phosphate, 130 mM sodium chloride, 0.05% tween 20, pH 7.1. The surfaces were regenerated after each cycle using two 30 s pulses of 10 mM glycine pH 1.5 at a flow rate of 30 μl/min. Sensogram data was double-referenced and then fitted to a 1:1 Langmuir model using Biacore T100 evaluation software v2.0.4, to determine the association rate constant (ka), the dissociation rate constant (kd), and the equilibrium dissociation constant (KD).

Binder	EC50 (nM), high-content internalization assay, Calu6, 2 h (human CD73 on cells [1]) [nM]	Ymax, high-content internalization assay (percent of 100 nM 11F11) (human CD73 on cells [1]) [%]	Kd [2]	koff [2]	kon [2]	EC50 (human CD73 on cells [3]) [nM]	Kd [4] [nM]	fold lower affinity than 11F11 or CD73.4 [5] [fold]
B1	0.87	99	5.7 nM and 6.8 nM	0.0016 s⁻¹ and 0.0014 s⁻¹	230000 M⁻¹ s⁻¹ and 240000 M⁻¹ s⁻¹	0.85	–	–
B2	0.67	99	6.2 nM and 8.3 nM	0.0014 s⁻¹ and 0.0018 s⁻¹	220000 M⁻¹ s⁻¹	0.85	~5	~10
